# Assay results: the supplement of paper PMC10567573
# B1: FAM189A2 (parent)
# chain: PRCDLVDLGEGKICFCCEEFQPAK
# Variants of: B1
# Assay: protein stability index of a GFP-peptide fusion (GPS, HEK-293T) (PSI 1-6); higher = more stable
# Details: c terminus: a fixed tail appended
# 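Also: lentivirally expressed fusions sorted by FACS into six bins by GFP to DsRed ratio, PSI derived from sequencing read proportions per bin multiplied by bin number.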
row,Variant,protein stability index
1,PRCDLVDFGEGKICFCCEEFQPAK,3.46
2,PRCDLVDKGEGKICFCCEEFQPAK,3.41
3,PRCDLVDTGEGKICFCCEEFQPAK,3.92
4,PRCDLVDCGEGKICFCCEEFQPAK,3.87
5,PRCDLVDDGEGKICFCCEEFQPAK,3.67
6,PRCDLVDQGEGKICFCCEEFQPAK,4.32
7,PRCDLVDNGEGKICFCCEEFQPAK,3.73
8,PRCDLVDIGEGKICFCCEEFQPAK,3.13
9,PRCDLVDEGEGKICFCCEEFQPAK,3.65
10,PRCDLVDGGEGKICFCCEEFQPAK,4.48
11,PRCDLVDYGEGKICFCCEEFQPAK,2.21
12,PRCDLVDSGEGKICFCCEEFQPAK,3.97
13,PRCDLVDHGEGKICFCCEEFQPAK,3.98
14,PRCDLVDMGEGKICFCCEEFQPAK,3.74
15,PRCDLVDPGEGKICFCCEEFQPAK,3.58
16,PRCDLVDRGEGKICFCCEEFQPAK,3.91
17,PRCDLVDWGEGKICFCCEEFQPAK,3.23
18,PRCDLVDAGEGKICFCCEEFQPAK,3.54
19,PRCDLVDVGEGKICFCCEEFQPAK,2.97
20,PRCDLVDLGWGKICFCCEEFQPAK,1.85
21,PRCDLVDLGQGKICFCCEEFQPAK,2.73
22,PRCDLVDLGPGKICFCCEEFQPAK,2.88
23,PRCDLVDLGDGKICFCCEEFQPAK,3
24,PRCDLVDLGAGKICFCCEEFQPAK,2.56

row,Variant,protein stability index
1,PRCDLVDLGIGKICFCCEEFQPAK,2.08
2,PRCDLVDLGMGKICFCCEEFQPAK,2.01
3,PRCDLVDLGCGKICFCCEEFQPAK,2.63
4,PRCDLVDLGFGKICFCCEEFQPAK,2.35
5,PRCDLVDLGVGKICFCCEEFQPAK,2.26
6,PRCDLVDLGKGKICFCCEEFQPAK,2.82
7,PRCDLVDLGHGKICFCCEEFQPAK,2.88
8,PRCDLVDLGSGKICFCCEEFQPAK,2.36
9,PRCDLVDLGGGKICFCCEEFQPAK,3
10,PRCDLVDLGLGKICFCCEEFQPAK,2.08
11,PRCDLVDLGNGKICFCCEEFQPAK,2.65
12,PRCDLVDLGRGKICFCCEEFQPAK,2.54
13,PRCDLVDLGYGKICFCCEEFQPAK,2.29
14,PRCDLVDLGTGKICFCCEEFQPAK,2.75
15,PPCDLVDLGEGKICFCCEEFQPAK,3.8
16,PWCDLVDLGEGKICFCCEEFQPAK,1.98
17,PYCDLVDLGEGKICFCCEEFQPAK,2.25
18,PSCDLVDLGEGKICFCCEEFQPAK,3.06
19,PQCDLVDLGEGKICFCCEEFQPAK,3.13
20,PFCDLVDLGEGKICFCCEEFQPAK,1.65
21,PICDLVDLGEGKICFCCEEFQPAK,2.83
22,PGCDLVDLGEGKICFCCEEFQPAK,3.18
23,PVCDLVDLGEGKICFCCEEFQPAK,2.17
24,PNCDLVDLGEGKICFCCEEFQPAK,2.9

row,Variant,protein stability index
1,PTCDLVDLGEGKICFCCEEFQPAK,2.94
2,PHCDLVDLGEGKICFCCEEFQPAK,2.58
3,PKCDLVDLGEGKICFCCEEFQPAK,2.46
4,PMCDLVDLGEGKICFCCEEFQPAK,2.41
5,PLCDLVDLGEGKICFCCEEFQPAK,2.8
6,PRCFLVDLGEGKICFCCEEFQPAK,2.11
7,PRCCLVDLGEGKICFCCEEFQPAK,2.74
8,PRCELVDLGEGKICFCCEEFQPAK,3.27
9,PRCMLVDLGEGKICFCCEEFQPAK,2.46
10,PRCQLVDLGEGKICFCCEEFQPAK,3.44
11,PRCSLVDLGEGKICFCCEEFQPAK,2.7
12,PRCLLVDLGEGKICFCCEEFQPAK,1.67
13,PRCALVDLGEGKICFCCEEFQPAK,2.11
14,PRCYLVDLGEGKICFCCEEFQPAK,1.86
15,PRCILVDLGEGKICFCCEEFQPAK,1.57
16,PRCWLVDLGEGKICFCCEEFQPAK,1.16
17,PRCNLVDLGEGKICFCCEEFQPAK,4.71
18,PRCTLVDLGEGKICFCCEEFQPAK,2.7
19,PRCGLVDLGEGKICFCCEEFQPAK,2.26
20,PRCVLVDLGEGKICFCCEEFQPAK,2.5
21,PRCRLVDLGEGKICFCCEEFQPAK,3.56
22,PRCPLVDLGEGKICFCCEEFQPAK,3.39
23,PRCKLVDLGEGKICFCCEEFQPAK,3.44
24,PRCHLVDLGEGKICFCCEEFQPAK,2.85

row,Variant,protein stability index
1,PRIDLVDLGEGKICFCCEEFQPAK,2.05
2,PRYDLVDLGEGKICFCCEEFQPAK,1.91
3,PRFDLVDLGEGKICFCCEEFQPAK,2.22
4,PREDLVDLGEGKICFCCEEFQPAK,3.55
5,PRGDLVDLGEGKICFCCEEFQPAK,2.98
6,PRNDLVDLGEGKICFCCEEFQPAK,2.25
7,PRSDLVDLGEGKICFCCEEFQPAK,2.43
8,PRKDLVDLGEGKICFCCEEFQPAK,3.07
9,PRLDLVDLGEGKICFCCEEFQPAK,2.97
10,PRDDLVDLGEGKICFCCEEFQPAK,3.53
11,PRHDLVDLGEGKICFCCEEFQPAK,3.31
12,PRWDLVDLGEGKICFCCEEFQPAK,2.69
13,PRRDLVDLGEGKICFCCEEFQPAK,2.63
14,PRVDLVDLGEGKICFCCEEFQPAK,3.33
15,PRPDLVDLGEGKICFCCEEFQPAK,2.89
16,PRADLVDLGEGKICFCCEEFQPAK,2.01
17,PRQDLVDLGEGKICFCCEEFQPAK,3.26
18,PRMDLVDLGEGKICFCCEEFQPAK,2.3
19,PRTDLVDLGEGKICFCCEEFQPAK,2.44
20,PRCDLVKLGEGKICFCCEEFQPAK,3.76
21,PRCDLVQLGEGKICFCCEEFQPAK,2.2
22,PRCDLVYLGEGKICFCCEEFQPAK,2.12
23,PRCDLVCLGEGKICFCCEEFQPAK,2.92
24,PRCDLVHLGEGKICFCCEEFQPAK,3.25

row,Variant,protein stability index
1,PRCDLVWLGEGKICFCCEEFQPAK,2.24
2,PRCDLVELGEGKICFCCEEFQPAK,3.05
3,PRCDLVPLGEGKICFCCEEFQPAK,3.17
4,PRCDLVGLGEGKICFCCEEFQPAK,3.28
5,PRCDLVSLGEGKICFCCEEFQPAK,2.21
6,PRCDLVALGEGKICFCCEEFQPAK,2.61
7,PRCDLVFLGEGKICFCCEEFQPAK,2.03
8,PRCDLVTLGEGKICFCCEEFQPAK,2.79
9,PRCDLVMLGEGKICFCCEEFQPAK,1.93
10,PRCDLVILGEGKICFCCEEFQPAK,1.71
11,PRCDLVVLGEGKICFCCEEFQPAK,1.89
12,PRCDLVLLGEGKICFCCEEFQPAK,2.3
13,PRCDLVNLGEGKICFCCEEFQPAK,2.76
14,PRCDLVRLGEGKICFCCEEFQPAK,2.6
15,PRCDLVDLGEGAICFCCEEFQPAK,3.51
16,PRCDLVDLGEGCICFCCEEFQPAK,3.45
17,PRCDLVDLGEWKICFCCEEFQPAK,2.69
18,PRCDLVDLGEVKICFCCEEFQPAK,1.05
19,PRCDLVDLGECKICFCCEEFQPAK,2.45
20,PRCDLVDLGESKICFCCEEFQPAK,2.8
21,PRCDLVDLGENKICFCCEEFQPAK,3.33
22,PRCDLVDLGEMKICFCCEEFQPAK,2.21
23,PRCDLVDLGEIKICFCCEEFQPAK,1.86
24,PRCDLVDLGEQKICFCCEEFQPAK,2.98

row,Variant,protein stability index
1,PRCDLVDLGEAKICFCCEEFQPAK,2.63
2,PRCDLVDLGEYKICFCCEEFQPAK,2.52
3,PRCDLVDLGERKICFCCEEFQPAK,2.55
4,PRCDLVDLGEFKICFCCEEFQPAK,1.51
5,PRCDLVDLGETKICFCCEEFQPAK,2.64
6,PRCDLVDLGEPKICFCCEEFQPAK,2.52
7,PRCDLVDLGELKICFCCEEFQPAK,1.95
8,PRCDLVDLGEKKICFCCEEFQPAK,2.4
9,PRCDLVDLGEHKICFCCEEFQPAK,2.81
10,PRCDLVDLGEEKICFCCEEFQPAK,3.44
11,PRCDLVDLGEDKICFCCEEFQPAK,3.28
12,PRCDLGDLGEGKICFCCEEFQPAK,3.46
13,PRCDLRDLGEGKICFCCEEFQPAK,3.4
14,PRCDLMDLGEGKICFCCEEFQPAK,2.65
15,PRCDLSDLGEGKICFCCEEFQPAK,3.21
16,PRCDLFDLGEGKICFCCEEFQPAK,2.71
17,PRCDLNDLGEGKICFCCEEFQPAK,3.71
18,PRCDLQDLGEGKICFCCEEFQPAK,3.92
19,PRCDLCDLGEGKICFCCEEFQPAK,4.15
20,PRCDLHDLGEGKICFCCEEFQPAK,4.45
21,PRCDLTDLGEGKICFCCEEFQPAK,2.98
22,PRCDLDDLGEGKICFCCEEFQPAK,3.34
23,PRCDLLDLGEGKICFCCEEFQPAK,2.6
24,PRCDLIDLGEGKICFCCEEFQPAK,2.49

row,Variant,protein stability index
1,PRCDLPDLGEGKICFCCEEFQPAK,3.03
2,PRCDLEDLGEGKICFCCEEFQPAK,3.48
3,PRCDLYDLGEGKICFCCEEFQPAK,2.73
4,PRCDLWDLGEGKICFCCEEFQPAK,2.28
5,PRCDLADLGEGKICFCCEEFQPAK,3.49
6,PRCDLKDLGEGKICFCCEEFQPAK,3.78
7,PRCDLVDLFEGKICFCCEEFQPAK,1.77
8,PRCDLVDLWEGKICFCCEEFQPAK,2.08
9,PRCDLVDLLEGKICFCCEEFQPAK,2.21
10,PRCDLVDLIEGKICFCCEEFQPAK,2.24
11,PRCDLVDLREGKICFCCEEFQPAK,2.14
12,PRCDLVDLTEGKICFCCEEFQPAK,2.83
13,PRCDLVDLAEGKICFCCEEFQPAK,2.9
14,PRCDLVDLMEGKICFCCEEFQPAK,2.04
15,PRCDLVDLQEGKICFCCEEFQPAK,2.33
16,PRCDLVDLEEGKICFCCEEFQPAK,2.86
17,PRCDLVDLCEGKICFCCEEFQPAK,2.91
18,PRCDLVDLSEGKICFCCEEFQPAK,2.77
19,PRCDLVDLPEGKICFCCEEFQPAK,2.99
20,PRCDLVDLHEGKICFCCEEFQPAK,3.06
21,PRCDLVDLDEGKICFCCEEFQPAK,3.18
22,PRCDLVDLVEGKICFCCEEFQPAK,2.52
23,PRCDLVDLKEGKICFCCEEFQPAK,2.96
24,PRCDLVDLYEGKICFCCEEFQPAK,2.94

row,Variant,protein stability index
1,PRCDLVDLNEGKICFCCEEFQPAK,2.28
2,PRCDDVDLGEGKICFCCEEFQPAK,3.95
3,PRCDIVDLGEGKICFCCEEFQPAK,3.13
4,PRCDAVDLGEGKICFCCEEFQPAK,3.98
5,PRCDPVDLGEGKICFCCEEFQPAK,3.39
6,PRCDFVDLGEGKICFCCEEFQPAK,2.6
7,PRCDGVDLGEGKICFCCEEFQPAK,4.44
8,PRCDWVDLGEGKICFCCEEFQPAK,2.16
9,PRCDNVDLGEGKICFCCEEFQPAK,3.52
10,PRCDRVDLGEGKICFCCEEFQPAK,2.98
11,PRCDTVDLGEGKICFCCEEFQPAK,3.47
12,PRCDEVDLGEGKICFCCEEFQPAK,3.84
13,PRCDVVDLGEGKICFCCEEFQPAK,3.02
14,PRCDKVDLGEGKICFCCEEFQPAK,4.28
15,PRCDHVDLGEGKICFCCEEFQPAK,4.84
16,PRCDYVDLGEGKICFCCEEFQPAK,2.85
17,PRCDMVDLGEGKICFCCEEFQPAK,2.86
18,PRCDCVDLGEGKICFCCEEFQPAK,4.89
19,PRCDSVDLGEGKICFCCEEFQPAK,3.03
20,PRCDQVDLGEGKICFCCEEFQPAK,3.73
